Data published in the RNAGym collection of RNA variant scans (doi:10.7554/elife.80360).

B1: HDV Ribozyme (parent)
chain: GGCCGGCAUGGUCCCAGCCUCCUCGCUGGCGCCGGCUGGGCAACAUUCCGAGGGGACCGUCCCCUCGGUAAUGGCGAAUGGGACCCA

Variants of: B1
Experiment: self-cleavage, relative activity (ratio to wild type); higher = more cleavage; co-transcriptional

Variant	self-cleavage
C22G U46C	0.116
U27C G55A	0.533
U9G G28C	0.222
C24U C62G	0.341
C18A G74C	0.0791
A77G A87U	0.851
U69C G74A	0.554
C15A G40A	0.77
U20G A45U	0.138
C3U U12A	0.0817
G25U U47C	0
U37C G59U	1.25
C32G U69G	0.0504
G35U U79C	0.0992
C3U C18U	0.43
C21A A71U	0.106
C30G C58G	0.0804
C14U G31C	0.342
U47A C85U	1.03
G38A U47C	0.0767
C61A G81U	0.347
A16U C19U	0.122
G6A G38U	0.0923
U9C C48U	0.748

Variant	self-cleavage
A78C A87G	0.127
A8G C86G	1.23
C62A U69C	0.882
G34A G35C	0.0378
C14U C30G	0.0923
C44G C49U	0.617
C86G A87C	1.04
C30G G68U	0.0228
C18A G28A	0.128
G59A C62G	0.502
C33U C41A	0.7
G59U U72G	0.776
C63U G80U	0.224
C30U C84A	0.252
U37G C63G	0.0615
G55U A83G	0.842
G2A G76C	0.225
G35C G82U	0.0723
C14A C75A	0.208
C18G G81A	0.277
C7G G73C	0
A43U C75A	0.0755
C21U G50C	0.115
C14A C33G	0.213

Variant	self-cleavage
G2C C41A	0
C61A G73A	0.641
C63A G80A	0.388
G11C C86G	0.312
A16C G73C	0.217
G50A C58U	0.919
C64A U79C	0.636
G1C U72G	0
G81C C85A	0.213
C18A U47C	0.0536
C13A C21A	0.158
C7G A16G	0.0978
A16U A56G	0.831
A42G C58U	0.617
G29C C33A	0.0959
G6U U69A	0.415
C13G G73A	0.0665
G25A C33U	0.0911
C30A A42C	0.14
A70C C75G	0.0615
G31U C41G	0.0437
G2U U20G	0.0256
C4G A51C	0.458
G34C C75U	0.0405

Variant	self-cleavage
C21A C64A	0.0692
C44A G80U	0.118
U20C A77G	0.208
G25A G40C	0.0959
G10A C30U	0.248
C36A G59A	0.164
C49U A77G	0.95
C21A C63A	0.0314
C3G C13G	0.0504
C36U U72A	0.324
C57U U60C	0.906
G10A G55A	0.831
U9G A16G	1.42
G38A C66G	0.109
U65A A70G	1.05
C49U U79C	0.47
C4U C63U	0.682
G31U C36G	0.0906
C33A A56C	0.339
G25C A56C	0.115
U46C U72A	0.504
U47C C62U	1.16
C7U A78U	0.166
C36U A87U	0.769

Variant	self-cleavage
U60C A77U	0.831
A16C G74A	0.0692
G35A G52A	0.47
U23G A78C	0.106
C7A C18G	0
U47A G80C	0.138
A45G G53C	1.05
C4G C84U	0.249
G53U C58A	1.02
U20C C75G	0
C13U G67C	0.374
A43G C44A	0.684
U60A G80U	0.299
C26A A83G	0.729
G10C C75G	0.115
G67U A77G	0.489
G55A A77G	0.991
G39U U60G	0.502
G29U U65C	0.173
A8U A70C	0.692
G1C C21A	0
C30G G39U	0.0692
C21U C63U	0.341
C30G C44G	0

Variant	self-cleavage
C30G A42U	0
G54A U65G	0.466
A42G U65A	0.703
G2U A45C	0
G6U G38U	0.0308
C66G U79A	0.808
C33G G52A	0.148
C3G G39A	0.0594
G68U G74U	0.604
C3A C85G	0.623
G74U C75U	0.151
G35A U37G	0.163
A56C C62U	1.02
C49U G67A	0.891
C3U G81U	0.187
G55U U69G	0.933
G6A C13A	0.185
U46G C61U	0.332
G10C C19A	0.0563
C19A U46C	0.0665
C3G U37A	0
U20A C58A	0.0615
C19U A71C	0.0898
C41A G55U	0.968

Variant	self-cleavage
U12G C30U	0.375
G11U A78C	0.02
U9G U23G	0.95
A42U C61G	0.77
C21G C66G	0
G6A C64U	0.739
G38A A42C	0.148
C19G U47A	0.106
C4U C49G	0.604
G52C G76C	1.03
G6C G34C	0.115
G17U C66G	0.464
G10C A78G	0.399
G17A U47C	0.587
G1U C21G	0.312
A45C C84A	0.655
C63U C85U	1.01
A8C G28A	0.252
G1U U20A	0.289
G34A C44A	0.089
G28U G76U	0.187
G17A G80U	0.198
G39C G80C	0.0845
